Reference: patent publication US20050065081A1, “Tyrosine kinase inhibitors” (priority 2002, published 2005)

Test system: GST-Jun
Assay: Abl in vitro kinase assay of immunoprecipitated Abl proteins, GST-Jun as substrate
Assay type: biochemical
Details: expressed in HEK293 cells, relative to Abl M1-K531
Procedure: C. Abl protein was immunoprecipitated from total cell extract using anti-Abl antibodies, blotted to nitrocellulose and probed with anti-Abl and anti-phosphotyrosine antibodies (left panels). Abl immunoprecipitates were assayed for catalytic activity by in vitro kinase assay using GST-Jun as substrate.
The catalytic activity of purified Abl protein bound to protein G-Sepharose beads was determined as follows. Beads were washed three times with IP buffer, two times with IP buffer without NaCl and two times with kinase assay buffer (20 mM Tris-HCl pH 7.5, 10 mM MgCl2, 1 mM DTT). Twenty μl linase assay mix (1 μg GST-Crk121-226 (Dorey et al., 1999), 0.5 μl [γ-^32P]-ATP (Amersham), 0.1 mM ATP in kinase assay buffer) was added and the mixture was incubated at room temperature for 10 and 20 minutes. The kinase reaction was stopped by adding SDS-sample buffer and analyzed by SDS-PAGE. Quantification of the reaction was done by cutting the desired bands from gel followed by liquid scintillation counting and/or phosphoimager analysis. For the in vitro inhibition of Abl, GST or GST 1b+2 protein were bacterially expressed, purified and dialysed against kinase assay buffer. Equal quantities of purified proteins were added directly to the kinase assay mixture, samples were incubated for 2 hours at 4° C. and then assayed as above.

Abl M1-K531: deletion mutant lacking the last exon region of c-Abl
Catalytic activity and tyrosine phosphorylation (in words): did not lead to activation

B1: Abl P82-K531: mutant lacking the last exon region and the N-terminal amino acids preceding the SH3 domain (protein, UniProt P00519 82-531, looked up, fragment)
chain: ITKGEKLRVLGYNHNGEWCEAQTKNGQGWVPSNYITPVNSLEKHSWYHGPVSRNAAEYLLSSGINGSFLVRESESSPGQRSISLRYEGRVYHYRINTASDGKLYVSSESRFNTLAELVHHHSTVADGLITTLHYPAPKRNKPTVYGVSPNYDKWEMERTDITMKHKLGGGQYGEVYEGVWKKYSLTVAVKTLKEDTMEVEEFLKEAAVMKEIKHPNLVQLLGVCTREPPFYIITEFMTYGNLLDYLRECNRQEVNAVVLLYMATQISSAMEYLEKKNFIHRDLAARNCLVGENHLVKVADFGLSRLMTGDTYTAHAGAKFPIKWTAPESLAYNKFSIKSDVWAFGVLLWEIATYGMSPYPGIDLSQVYELLEKDYRMERPEGCPEKVYELMRACWQWNPSDRPSFAEIHQAFETMFQESSISDEVEKELGKQGVRGAVSTLLQAPELPTK
modifications: isoform 1B
notes: mutant lacking the last exon region and the N-terminal amino acids preceding the SH3 domain
Catalytic activity and tyrosine phosphorylation (in words): highly active in vitro
